Test results: paper PMC10022779, “Purification and biochemical analysis of native AMPA receptors from three different mammalian species” (PLOS ONE, 2023)

Legend:
Conditions in all cases: one partner purified
[1] = biological target: T1, GluA2 in native GluA2-containing AMPARs from rat brain (Rattus norvegicus, Sprague Dawley, UniProt P19491); test: SEC; fluorescence-size exclusion chromatography (FSEC), GFP fluorescence; 15F1-GFP Fab added to membranes solubilized in 2% digitonin (w/v), equal masses of membranes from each mammal
T1 construct: AMPA receptor subunit GluA2, rat, endogenous in brain; also called native rat AMPARs; source: endogenous, rat (Sprague Dawley) brain membranes, solubilized in 2% digitonin

[2] = biological target: T2, GluA2 in native GluA2-containing AMPARs from pig brain (Sus scrofa (pig), endogenous brain, UniProt A0A287AEG6); test: as above
T2 construct: AMPA receptor subunit GluA2, pig, endogenous in brain; also called native pig AMPARs; source: endogenous, pig brain membranes, solubilized in 2% digitonin

[3] = biological target: T3, GluA2 in native GluA2-containing AMPARs from mouse brain (Mus musculus, C57BL/6, UniProt P23819); test: pull-down; immunoaffinity purification: 15F1-GFP incubated with digitonin-solubilized membrane supernatant (on ice, 20 min), 15F1-GFP-bound AMPARs held on Streptactin resin by the twin-Strep II tag, eluted with 8 mM d-desthiobiotin, then SEC (Superose 6) in TBS, 1 uM (R,R)-2b, 1 uM MPQX, 0.075% digitonin; read out by FSEC and silver-stained SDS-PAGE
T3 construct: AMPA receptor subunit GluA2, mouse, endogenous in brain; also called native mouse AMPARs; source: endogenous, mouse (C57BL/6) brain membranes, solubilized in 2% digitonin

Measured: binding result

T3 sequence (P23819 25-883): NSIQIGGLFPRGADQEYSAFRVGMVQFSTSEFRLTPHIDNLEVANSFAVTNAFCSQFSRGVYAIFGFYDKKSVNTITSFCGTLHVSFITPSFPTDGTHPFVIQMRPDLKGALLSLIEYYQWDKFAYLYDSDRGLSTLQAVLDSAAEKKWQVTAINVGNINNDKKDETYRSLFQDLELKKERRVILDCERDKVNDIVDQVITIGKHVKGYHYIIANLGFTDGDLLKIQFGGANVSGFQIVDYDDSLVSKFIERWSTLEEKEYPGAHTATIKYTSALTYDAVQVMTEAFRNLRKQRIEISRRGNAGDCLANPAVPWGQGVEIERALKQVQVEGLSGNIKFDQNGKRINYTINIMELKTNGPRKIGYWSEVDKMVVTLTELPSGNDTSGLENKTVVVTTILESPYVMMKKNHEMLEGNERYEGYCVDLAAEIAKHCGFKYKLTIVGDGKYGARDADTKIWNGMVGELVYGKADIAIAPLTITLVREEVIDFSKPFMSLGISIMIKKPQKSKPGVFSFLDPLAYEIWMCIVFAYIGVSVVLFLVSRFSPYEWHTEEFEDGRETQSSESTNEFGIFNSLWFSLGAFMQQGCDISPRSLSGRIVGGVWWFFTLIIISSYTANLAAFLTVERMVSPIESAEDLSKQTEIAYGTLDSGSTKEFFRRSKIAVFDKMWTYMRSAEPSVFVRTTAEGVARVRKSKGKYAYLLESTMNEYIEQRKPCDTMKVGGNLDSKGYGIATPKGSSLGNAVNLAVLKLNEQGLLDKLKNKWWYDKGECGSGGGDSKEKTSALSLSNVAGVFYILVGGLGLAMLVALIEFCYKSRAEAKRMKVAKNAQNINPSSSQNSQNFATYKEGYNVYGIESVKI
T1 sequence (P19491 22-883): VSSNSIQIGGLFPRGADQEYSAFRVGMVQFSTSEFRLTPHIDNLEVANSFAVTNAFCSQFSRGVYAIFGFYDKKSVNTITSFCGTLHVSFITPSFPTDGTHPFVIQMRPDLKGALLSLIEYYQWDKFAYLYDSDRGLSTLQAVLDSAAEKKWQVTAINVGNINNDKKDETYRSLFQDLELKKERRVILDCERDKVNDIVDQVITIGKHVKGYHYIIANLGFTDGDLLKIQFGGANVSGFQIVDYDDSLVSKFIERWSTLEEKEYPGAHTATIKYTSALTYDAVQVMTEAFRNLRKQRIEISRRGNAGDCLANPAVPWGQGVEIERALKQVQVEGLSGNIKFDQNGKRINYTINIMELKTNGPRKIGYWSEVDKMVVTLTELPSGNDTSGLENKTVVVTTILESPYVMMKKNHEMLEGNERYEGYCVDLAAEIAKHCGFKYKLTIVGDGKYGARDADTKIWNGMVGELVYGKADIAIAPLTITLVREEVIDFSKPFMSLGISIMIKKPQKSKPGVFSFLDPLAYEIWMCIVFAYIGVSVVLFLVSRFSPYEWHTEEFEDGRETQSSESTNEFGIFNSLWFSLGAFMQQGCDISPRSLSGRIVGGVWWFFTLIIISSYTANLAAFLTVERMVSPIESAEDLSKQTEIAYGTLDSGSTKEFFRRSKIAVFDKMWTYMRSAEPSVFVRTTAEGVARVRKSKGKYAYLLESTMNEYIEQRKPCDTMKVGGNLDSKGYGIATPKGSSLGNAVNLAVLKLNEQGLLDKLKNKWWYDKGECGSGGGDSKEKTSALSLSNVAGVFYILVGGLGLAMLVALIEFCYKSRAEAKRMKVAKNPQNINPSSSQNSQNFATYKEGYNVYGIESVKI

B1: 15F1-GFP Fab (Fab, V domains shown)
VH: QAQLKESGPGLVAPSQSLSITCTVSGFSLTNYGVHWVRQPPGKGLEWLGVIWAGGSTNYNSALMSRVSISKDNSKSQVFLKMNSLQTDDTVMYYCAREDYDYDWHFDVWGAGTTVTVSS
VL: EIQMTQTTSSLSASLGDRVTISCRASQDISNYLSWYQQKPDGTVKLLIYYTSRLHSGVPSRFSGSGSGIDYSLTINNLEQEDFATYFCQQGNTLPLTFGAGTKLELK
notes: Fab domain of the heavy chain of the 15F1 monoclonal antibody; Fab domain of the light chain of the 15F1 monoclonal antibody; On the heavy chain eGFP is followed by the twin-Strep II tag; also called 15F1 Fab; anti-GluA2 antibody fragment; not shown: eGFP, C-terminal, kept; twin-Strep II, C-terminal, kept
binds: all assays above
